# Source: patent publication US7005285
protein,measurement,setting,value
"human p21-activated kinase 5 (PAK5), full length, expressed in 293 cells from pcDNA3.1 myc-his (protein) MFGKKKKKIEISGPSNFEHRVHTGFDPQEQKFTGLPQQWHSLLADTANRPKPMVDPSCITPIQLAPMKTIVRGNKPCKETSINGLLEDFDNISVTRSNSLRKESPPTPDQGASSHGPGHAEENGFITFSQYSSESDTTADYTTEKYREKSLYGDDLDPYYRGSHAAKQNGHVMKMKHGEAYYSEVKPLKSDFARFSADYHSHLDSLSKPSEYSDLKWEYQRASSSSPLDYSFQFTPSRTAGTSGCSKESLAYSESEWGPSLDDYDRRPKSSYLNQTSPQPTMRQRSRSGSGLQEPMMPFGASAFKTHPQGHSYNSYTYPRLSEPTMCIPKVDYDRAQMVLSPPLSGSDTYPRGPAKLPQSQSKSGYSSSSHQYPSGYHKATLYHHPSLQSSSQYISTASYLSSLSLSSSTYPPPSWGSSSDQQPSRVSHEQFRAALQLVVSPGDPREYLANFIKIGEGSTGIVCIGTEKHTGKQVAVKKMDLRKQQRRELLFNEVVIMRDYHHDNVVDMYSSYLVGDELWVVMEFLEGGALTDIVTHTRMNEEQIATVCLSVLRALSYLHNQGVIHRDIKSDSILLTSDGRIKLSDFGFCAQVSKEVPKRKSLVGTPYWMAPELISRLPYGTEVDIWSLGIMVIEMIDGEPPYFNEPPLQAMRRIRDSLPPRVKDLHKVSSVLRGFLDLMLVREPSQRATAQELLGHPFLKLAGPPSCIVPLMRQYRHH","kinase assay: incorporation of 32P from [gamma-32P]ATP into substrate, SDS gel and phosphoimager",histone H1,PAK5 is able to phosphorylate generic kinase substrates such as myelin basic protein and histone H1
same,"kinase assay: incorporation of 32P from [gamma-32P]ATP into substrate, SDS gel and phosphoimager",myelin basic protein,PAK5 is able to phosphorylate generic kinase substrates such as myelin basic protein and histone H1
